Results reported in publication PMC10378331, “Structural and Kinetic Characterization of the SpeG Spermidine/Spermine N-acetyltransferase from Methicillin-Resistant Staphylococcus aureus USA300” (Cells, 2023).

Tests used:
[1] = substrate: CC(=O)SCCNC(=O)CCNC(=O)[C@H](O)C(C)(C)COP(=O)(O)OP(=O)(O)OC[C@H]1O[C@@H](n2cnc3c(N)ncnc32)[C@H](O)[C@@H]1OP(=O)(O)O; experiment: DTNB colorimetric CoA assay, discontinuous; format: biochemical, Staphylococcus aureus; settings: Assay 2, enzyme pre-incubated with spermine, co-substrate 1.5 mM spermine (acceptor and allosteric ligand), 70 mM Bicine pH 8.0, 20 mM NaCl, 0.005% Triton X-100, 22 °C, 22.0 °C
Text: (§1) DTNB colorimetric CoA assay, discontinuous on SaSpeG

[2] = substrate: NCCCCNCCCN; experiment: DTNB colorimetric CoA assay, discontinuous; format: biochemical, Staphylococcus aureus; settings: Assay 1 (standard), no pre-incubation with polyamine, 0.5 mM AcCoA, 70 mM Bicine pH 8.0, 20 mM NaCl, 37 °C, Hill fit
Text: as §1

[3] = molecular target: the molecule itself; experiment: crystal structure; ligand-free SaSpeG, 0.1 M NaCl, 0.1 M HEPES pH 8.0, 1.6 M ammonium sulfate; one protomer in the asymmetric unit; oligomer from symmetry-related proteins and PISA analysis

B1: SaSpeG (Staphylococcus aureus subsp. aureus USA300) (protein)
chain: MKLRALEYSDLLFVHELNNEYSIMSYWFEEPYESLTELQHLFDKHLLDESERRFIVEDENQVVGIVELVEINYIHRNCEIQIIIKPEFSGKGYAKFAFEKAIIYAFNILNMHKIYLYVDADNKKAIHIYESQGFKTEGLLKEQFYTKGKYKDAYFMSLLKSEYIL
notes: E. coli BL21(DE3); dodecamer by PISA
Work on B1 yielded a K0.5 [1] of 0.29 ± 0.01 mM, a kcat [1] of 390 s⁻¹ and a kcat/Km [1] of 1.3e+06 M⁻¹ s⁻¹. The K0.5 [2] was 4.0 ± 0.1 mM, the kcat [2] was 3 s⁻¹ and the kcat/Km [2] was 750 M⁻¹ s⁻¹.

B2: SpeG spermidine/spermine N-acetyltransferase from Staphylococcus aureus USA300 (enzyme)
chain: MKLRALEYSDLLFVHELNNEYSIMSYWFEEPYESLTELQHLFDKHLLDESERRFIVEDENQVVGIVELVEINYIHRNCEIQIIIKPEFSGKGYAKFAFEKAIIYAFNILNMHKIYLYVDADNKKAIHIYESQGFKTEGLLKEQFYTKGKYKDAYFMSLLKSEYIL
notes: SpeG spermidine/spermine N-acetyltransferase, Staphylococcus aureus USA300, UniProt A0A0H2XGJ0; gene synthesized and cloned into pMCSG21 at the SspI site; monomer ~19.8 kDa; after TEV cleavage the residues SN would remain at the N-terminus; The number of copies differs by experiment: dodecamer from crystal symmetry and PISA, trimer/tetramer by SEC; also called SaSpeG; source: E. coli BL21 (DE3) …
With B2 the “stoichiometry N” value [3] was 12.
